Laboratory results taken from article PMC3258154.

Target: eIF3 from HeLa cells (human (endogenous in HeLa)) (UniProt Q14152)
Experiment: native gel or EMSA

## eIF2 from HeLa cells (from UniProt P05198 1-315; P20042 1-333) (complex)
  concentration below which the complex starts to dissociate: 200 to 300 nM
